Target: purified β protein (β clamp) (UniProt P0A988)
Assay: SPR

Kd: 2440 nM
B1: His-6-tagged TnsE, purified (natural protein)
chain: MVRLATFNDNVQVVHIGHLFRNSGHKEWRIFVWFNPMQERKWTRFTHLPLLSRAKVVNSTTKQINKADRVIEFEASDLQRAKIIDFPNLSSFASVRNKDGAQSSFIYEAETPYSKTRYHIPQLELARSLFLINSYFCRSCLSSTALQQEFDVQYEVERDHLEIRILPSSSFPKGALEQSAVVQLLVWLFSDQDVMDSYESIFRHYQQNREIKNGVESWCFSFDPPPMQGWKLHVKGRSSNEDKDYLVEEIVGLEINAMLPSTTAISHASFQEKEAGDGSTQHIAVSTESVVDDEHLQLDDEETANIDTDTRVIEAEPTWISFSRPSRIEKSRRARKSSQTILEKEEATTSENSNLVSTDEPHLGGVLAAADVGGKQDATNYNSIFANRFAAFDELLSILKTKFACRVLFEETLVLPKVGRSRLHLCKDGSPRVIKAVGVQRNGSEFVLLEVDASDGVKMLSTKVLSGVDSETWRNDFEKIRRGVVKSSLNWPNSLFDQLYGQDGHRGVNHPKGLGELQVSREDMEGWAERVVREQFTH
